Data as given in paper PMC6726447.

Target: HAdV-D26 fiber knob protein (human adenovirus type 26 (HAdV-D26))
Test: crystal structure; HAdV-D26K crystals (PACT Premier B01 and B04, pH 4.0 and pH 8.0) soaked in 10 mM Neu5Ac; cubic space group, biological trimer assembled from it

HAdV-D26 fiber knob protein (domain or fragment)
stoichiometry N: 3
